Reference: publication PMC10997794, “Seeding the meiotic DNA break machinery and initiating recombination on chromosome axes” (Nature Communications, 2024)

Molecular target: T1, SUMO-His tagged HORMAD1 HORMA (residues 1-235) (mouse, UniProt Q9D5T7 1-235)
T1 construct: HORMAD1, mouse, HORMA domain, amino acids 1-235, from codon-optimized synthetic DNA; also called the HORMA domain of HORMAD1; source: E. coli BL21(DE3), purified (Talon, ion exchange, SEC); not shown: SUMO, N-terminal, kept; His, N-terminal, kept
T1 sequence (looked up): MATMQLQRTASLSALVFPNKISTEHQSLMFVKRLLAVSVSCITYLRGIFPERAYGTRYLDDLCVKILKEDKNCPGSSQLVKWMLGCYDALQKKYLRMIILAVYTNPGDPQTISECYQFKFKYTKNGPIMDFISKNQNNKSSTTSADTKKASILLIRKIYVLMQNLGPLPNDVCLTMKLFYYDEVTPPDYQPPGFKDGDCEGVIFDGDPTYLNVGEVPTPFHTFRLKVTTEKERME
Assay: pull-down; amylose pull-down; MBP-tagged IHO1 truncations as baits at 1 µM with 12 µM SUMO-His HORMAD1 HORMA; 20 mM HEPES pH 7.5, 100 mM NaCl, 5% glycerol, 1 mM TCEP, 0.1% Tween20; 8 °C; Coomassie and immunoblot
Conditions: both partners purified

B1: MBP-tagged IHO1 truncation, residues 359-574 (domain or fragment, mouse, UniProt Q6PDM4 359-574, looked up)
chain: KNWVMTTRSVSNHFSNLPSQRAGNGQGLMAQGASQRDVSKFEARVKNACPEYGPQSMCSFDSLEQSATEQKGRPCRKRRRGKKQQPQRSKRGGLLDRKQGQTSKAACAFIARHHCPQSPVCDPQGPLICWLTPRSSTKSTCHILGGTGETSQTARAAQGNLVQHSQRSSTDSSSQGDQQINWFSDLSLENLEPPQCKKGGTNLLCDPDFDSSDDNF
notes: The MBP tag is 3C HRV cleavable but was kept for the amylose pull-down; source: High Five insect cells (baculovirus), purified (MBP-trap, Resource Q, Superdex200); not shown: MBP, N-terminal, kept
  binding result: binds
